Patent US20250074980A1 (BRIGHAM AND WOMEN S HOSPITAL, published 2025)
Residue numbers refer to the chain shown, from its start. Names may count otherwise.

T1: CEACAM6 on transfected HeLa cells (human, UniProt P40199 35-320)
T1 construct: whole, on cells; also called HeLa-CEACAM6; HeLa C6
T1 sequence (looked up): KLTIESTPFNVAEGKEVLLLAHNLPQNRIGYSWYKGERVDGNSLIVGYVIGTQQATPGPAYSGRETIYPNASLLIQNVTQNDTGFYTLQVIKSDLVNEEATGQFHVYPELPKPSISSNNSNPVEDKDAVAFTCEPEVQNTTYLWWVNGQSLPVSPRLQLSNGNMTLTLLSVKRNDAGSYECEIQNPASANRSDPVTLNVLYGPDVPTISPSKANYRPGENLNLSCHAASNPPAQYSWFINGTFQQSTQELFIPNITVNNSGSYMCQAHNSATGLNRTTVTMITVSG

T2: His-tagged CEACAM1 (human, UniProt P13688 35-428)
T2 construct: 45 kDa SPR analyte; also called CEACAM1-HIS; CEACAM1 analyte
T2 sequence: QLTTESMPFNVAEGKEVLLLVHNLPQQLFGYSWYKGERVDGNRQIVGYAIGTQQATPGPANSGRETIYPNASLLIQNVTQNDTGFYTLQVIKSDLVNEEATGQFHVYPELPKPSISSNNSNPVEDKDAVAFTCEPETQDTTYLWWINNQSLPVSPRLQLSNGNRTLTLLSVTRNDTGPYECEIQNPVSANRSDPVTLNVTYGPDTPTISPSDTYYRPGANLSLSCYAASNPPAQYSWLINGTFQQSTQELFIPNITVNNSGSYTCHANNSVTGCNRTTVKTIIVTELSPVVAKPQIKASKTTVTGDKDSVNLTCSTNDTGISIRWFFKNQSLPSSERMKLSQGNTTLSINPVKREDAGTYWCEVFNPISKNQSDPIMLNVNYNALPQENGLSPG

T3: CEACAM8 on transfected HeLa cells (human, UniProt P31997 35-320)
T3 construct: whole, on cells; also called HeLa-CEACAM8; HeLa C8
T3 sequence (looked up): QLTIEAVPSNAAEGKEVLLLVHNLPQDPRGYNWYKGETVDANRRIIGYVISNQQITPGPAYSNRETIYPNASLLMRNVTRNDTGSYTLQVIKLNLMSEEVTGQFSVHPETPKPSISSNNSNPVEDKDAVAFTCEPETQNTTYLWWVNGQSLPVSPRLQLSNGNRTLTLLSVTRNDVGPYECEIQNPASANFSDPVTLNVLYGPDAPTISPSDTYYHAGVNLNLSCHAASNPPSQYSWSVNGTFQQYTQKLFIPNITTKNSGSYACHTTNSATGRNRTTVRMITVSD

T4: CEACAM3 on transfected HeLa cells (human, UniProt P40198 35-252)
T4 construct: whole, on cells; also called HeLa-CEACAM3; HeLa C3
T4 sequence (looked up): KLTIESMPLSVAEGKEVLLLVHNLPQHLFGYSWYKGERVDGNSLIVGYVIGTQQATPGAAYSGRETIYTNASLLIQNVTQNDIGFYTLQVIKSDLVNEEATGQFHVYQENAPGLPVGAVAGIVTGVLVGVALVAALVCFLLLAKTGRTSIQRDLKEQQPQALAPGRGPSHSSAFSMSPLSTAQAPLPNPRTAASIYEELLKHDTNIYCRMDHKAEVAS

B1: VH1/Vκ1 (antibody, IgG4, V domains shown)
VH: EVQLLESGGGLVQPGGSLRLSCAASGFIFSSHGMSWVRQAPGKGLEWVATISSGGTYTYYPDSVKGRFTISRDNSKNTLYLQMNSLKAEDTAMYYCARHDFDYDAAWFAYWGQGTLVTVSS
VL: QIVLTQSPALLSLSPGERATMSCSANSSVSYMYWYRQKPGQAPKPWIYLTSNLASGVPARFSGSGSGTDYTLTISSLEAEDFATYYCQQWSSNPPTFGQGTKLEIK
notes: IgG4 (S241P), kappa
B2: VH2/Vκ2 (antibody, IgG4, V domains shown)
VH: B1 VH with K87R
VL: B1 VL with Q1E, L10T, M21L, S24R, R36Q, K44R, L53R, S55T, A79P
notes: IgG4 (S241P), kappa
B3: VH3/Vκ1 (antibody, IgG4, V domains shown)
VH: B1 VH with P61A, K87R
VL: B1 VL
notes: IgG4 (S241P), kappa
B4: VH1/Vκ2 (antibody, IgG4, V domains shown)
VH: B1 VH
VL: B1 VL with Q1E, L10T, M21L, S24R, R36Q, K44R, L53R, S55T, A79P
notes: IgG4 (S241P), kappa
B5: VH1/Vκ11 (antibody, IgG4, V domains shown)
VH: B1 VH
VL: EIVLTQSPATLSLSPGERATLSCRANSSVSYMYWYQQKPGQAPRPWIYLTSNRATGIPARFSGSGSGTDYTLTISSLEPEDFAVYYCQQWSSNPPTFGQGTKLEIK
notes: IgG4 (S241P), kappa
B6: VH2/Vκ1 (antibody, IgG4, V domains shown)
VH: B1 VH with K87R
VL: B1 VL
notes: IgG4 (S241P), kappa
B7: VH4/Vκ1 (antibody, IgG4, V domains shown)
VH: B1 VH with A49S, P61A, K87R, M93V
VL: B1 VL
notes: IgG4 (S241P), kappa
B8: VH3/Vκ4 (antibody, IgG4, V domains shown)
VH: B1 VH with P61A, K87R
VL: B5 VL with V84T
notes: IgG4 (S241P), kappa
B9: VH1/Vκ4 (antibody, IgG4, V domains shown)
VH: B1 VH
VL: B5 VL with V84T
notes: IgG4 (S241P), kappa
B10: VH4/Vκ4 (antibody, IgG4, V domains shown)
VH: B1 VH with A49S, P61A, K87R, M93V
VL: B5 VL with V84T
notes: IgG4 (S241P), kappa
B11: VH4/Vκ2 (antibody, IgG4, V domains shown)
VH: B1 VH with A49S, P61A, K87R, M93V
VL: B5 VL with I57V, V84T
notes: IgG4 (S241P), kappa
B12: VH2/Vκ4 (antibody, IgG4, V domains shown)
VH: B1 VH with K87R
VL: B5 VL with V84T
notes: IgG4 (S241P), kappa
B13: VH3/Vκ2 (antibody, IgG4, V domains shown)
VH: B1 VH with P61A, K87R
VL: B5 VL with I57V, V84T
notes: IgG4 (S241P), kappa

target: T1, CEACAM6 on transfected HeLa cells; experiment: flow cytometry, HeLa-CEACAM6 transfectants, % positive cells
Procedure: Binding selectivity for CEACAM1 was tested for the 24 humanized antibody variants that bound to CEACAM1 (see Table 3), as well as the chimeric control antibody VH0/Vκ0, by flow cytometry on HeLa cells transfected with CEACAM1, 3, 5, 6 and 8. […] There was no evidence of any staining of the HeLa-CEACAM3 or HeLa-CEACAM8 transfectants. […] Due to its favorable affinity to and selectivity for CEACAM1 as well as its favorable expression level, VH1/Vκ8 was chosen as the framework for affinity maturation.

binding result	Binder
no binding	B1
no binding	B2
no binding	B3
no binding	B4
no binding	B5
no binding	B6
no binding	B7
no binding	B8
no binding	B9
no binding	B10
no binding	B11
no binding	B12
no binding	B13

target: T2, His-tagged CEACAM1; experiment: SPR multi-cycle, IgG captured
Procedure: (§1) As an alternative approach to assess the binding of the 36 antibody combinations and the three control antibodies to CEACAM1, a kinetic analysis was performed on a Biacore T200 (serial no. 1909913) running Biacore T200 Evaluation Software V2.0.1 (Uppsala, Sweden). All experiments were run at 25° C. with HBS-P+ running buffer (pH 7.4) (GE Healthcare, cat. no. BR100671). All kinetic experiments were performed using His-tagged CEACAM1 as the analyte. For all experiments, antibodies were immobilized onto a Series S Protein A sensor chip surface. For kinetic experiments, the amount of immobilized/captured ligand was limited to avoid mass transfer effects at the surface of the chip with the surface ideally having an analyte binding level (Rₘₐₓ) of 50-150 RUs. Using a MW of 45 kDa for the CEACAM1 analyte, 150 kDa for the antibody ligand (estimated value for IgG), 50 RU for Rmax and the stoichiometry (Sm) as 2 due to the ability of each antibody to bind 2 target molecules, a target response level of ˜75 RUs was set for capture of all the sample antibodies.
The signal from the reference channel Fc1 was subtracted from that of Fc2, Fc3 and Fc4 to correct for differences in non-specific binding to a reference surface, a global Rmax parameter was used in the 1-to-1 binding model. The relative Kp compared to […] was calculated by dividing the Kp of the humanized CEACAM antibody variants by that of the chimeric antibody VH0/Vκ0 on the same chip. A summary of the averaged relative Kp obtained for the 12 antibody combinations analyzed using multi cycle kinetics can be found in Table 5.

Kd	average relative KD to VH0/Vκ0	koff	kon	relative KD to VH0/Vκ0	Binder
190 nM	3.4	0.0503 s⁻¹	265000 M⁻¹ s⁻¹	3.4	B4

target: T2, His-tagged CEACAM1; experiment: SPR single-cycle, IgG captured
Procedure: as §1
Single cycle analysis of the 36 antibody combinations and the three control antibodies was performed on purified antibodies (Vκ1 to Vκ6 variants) or on the supernatants of the transiently transfected HEK EBNA cells (Vκ7 to Vκ12 variants). In some instances, where supernatant was not available, purified chimeric antibody VH0/Vκ0 was spiked into HEK EBNA culture medium to use as a positive control. Antibodies were diluted in HBS-P+ to a concentration of 1 μg/ml (as determined by an IgG quantitation ELISA). At the start of each cycle, antibodies were loaded onto Fc2, Fc3 and Fc4 of a protein A chip and IgG captured at a flow rate of 8 μl/min to give an RU of ˜75. The surface was then allowed to stabilize. Single cycle kinetic data was obtained at a flow rate of 50 μl/min to minimize any potential mass transfer effects. Multiple repeats of the chimeric antibody VH0/Vκ0 were performed to check the stability of the surface and analyte over the kinetic cycles. The signal from the reference channel Fc1 (no antibody) was subtracted from that of Fc2, Fc3 and Fc4 to correct for differences in non-specific binding to a reference surface. A 5 point 2-fold dilution range from 3.125 to 50 nM CEACAM1 without regeneration between each concentration was used.

Kd	relative KD to VH0/Vκ0	Binder
85 nM	2	B1
98 nM	2.3	B2
135 nM	3.2	B3
134 nM	3.2	B4
143 nM	3.5	B5
113 nM	2.7	B6
99 nM	2.4	B7
81 nM	1.9	B8
131 nM	3.1	B9
120 nM	2.9	B10
74 nM	1.8	B11
103 nM	2.5	B12
103 nM	2.5	B13

target: T3, CEACAM8 on transfected HeLa cells; experiment: flow cytometry, transfected HeLa
How it was run: (§2)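 For each HeLa line stably transfected with one CEACAM family member, staining is given as the measure of binding selectivity. Cultures were held at 37° C with 5.0% CO₂ in DMEM plus 10% fetal bovine serum. The test antibody, a fluorochrome-conjugated isotype-specific secondary antibody and DAPI as viability dye were applied, with acquisition on a Cytoflex and analysis in FlowJo.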

binding result	Binder
no binding	B1
no binding	B2
no binding	B3
no binding	B4
no binding	B5
no binding	B6
no binding	B7
no binding	B8
no binding	B9
no binding	B10
no binding	B11
no binding	B12
no binding	B13

target: T4, CEACAM3 on transfected HeLa cells; experiment: flow cytometry, transfected HeLa
How it was run: as §2

binding result	Binder
no binding	B1
no binding	B2
no binding	B3
no binding	B4
no binding	B5
no binding	B6
no binding	B7
no binding	B8
no binding	B9
no binding	B10
no binding	B11
no binding	B12
no binding	B13
